The target in test [1] is H3–H4 (H3 refolded with labeled H4 E63C) (UniProt P61830). The test is described as follows: FRET or BRET.
Test [2] has as its target H2A–H2B (H2A T118C labeled with Alexa-488 refolded with H2B) (UniProt P04911). Nature of the test: FRET or BRET. On the technique in general: Bioluminescence resonance energy transfer reports proximity on the nanometre scale.
UniProt P04911, sequence (P04911 2-132, chain 1 of 2): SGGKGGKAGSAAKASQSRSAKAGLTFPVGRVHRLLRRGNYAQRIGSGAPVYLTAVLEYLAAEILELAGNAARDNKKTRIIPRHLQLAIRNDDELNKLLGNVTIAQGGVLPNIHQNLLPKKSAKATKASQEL
UniProt P04911, sequence (P02294 2-131 T119C, chain 2 of 2, further chain): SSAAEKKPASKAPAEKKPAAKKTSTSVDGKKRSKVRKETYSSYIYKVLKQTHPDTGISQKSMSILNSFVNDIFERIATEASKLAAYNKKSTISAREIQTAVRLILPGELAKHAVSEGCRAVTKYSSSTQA

As a reminder, the Kd is the constant that tells how readily two partners part at equilibrium. The low end stands for tighter binding, the high end for weaker binding. For the substance “Scm3, full length, labeled with Atto-647N at cysteine 41 (from UniProt Q12334 1-223) (natural protein)”, the results for the Kd in test [1] and in test [2] were 196 nM and 305 nM, respectively.

These data come from PMC4027189.
